Assay results published in patent publication US20140179593A1 (published 2014).
Positions of bridges follow the written chain, without caps; N, C: chain ends. Non-standard residues stand in square brackets, D forms with d. S5 = C=CCCC[C@](C)(N)C(=O)O

Assays:
[1] = target: T1, hDcn1^P (residues 62 to the C-terminal residue 259 of hDcn1, aka SCCRO or DCUN1D1) (Homo sapiens, UniProt Q96GG9 62-259); test: ITC; against Acetyl-hUbc12^1-12
T1 construct: Expressed as a GST fusion in E. coli; GST released by TEV protease; also called DCUN1D1^P; PONY domain of hDcn1
Protocol: (§1) Specifically, Phe5 and Gln9 were replaced with (S)-2-(4′-pentenyl) alanine and these side-chains were covalently linked to test the effect of “stapling” an acetylated Ubc12 peptide into a helix (Bird et al. (2008) Methods Enzymol 446:369-386).
(§2) Protein samples were buffer matched by desalting over a NAP-5 column (GE Healthcare) into 50 mM Hepes, 125 mM NaCl, 1 mM BME, pH 7.0 (ITC buffer). Peptides were dissolved by weight to a final concentration of 10 mM in ITC buffer and diluted further in ITC buffer as required for the experiments. […] The peptide ligands (4 mM) were constantly injected (1.5 μl). The interval time between each injection was 3 minutes and the duration of each injection was 3 seconds. […] Peptide ligands (250 μM) were constantly injected (2.5 μl). The interval time between each injection was three minutes and the duration of each injection was 5 seconds. […] The interval time between each injection was 3 minutes and the duration of each injection was 5 seconds. Obtained spectra were evaluated using Origin (V 7.0) to determine heats of binding and Kd values.

[2] = target: T2, hE1 for Nedd8 (APPBP1-UBA3, NAE1-UBA3) (Homo sapiens, UniProt Q13564 18-534; Q8TBC4 22-463, limits assumed); test: not named in the sentence (ITC in Table 25)
T2 construct: Heterodimer of NAE1 and UBA3, expressed in E. coli as described previously
T2 sequence 1: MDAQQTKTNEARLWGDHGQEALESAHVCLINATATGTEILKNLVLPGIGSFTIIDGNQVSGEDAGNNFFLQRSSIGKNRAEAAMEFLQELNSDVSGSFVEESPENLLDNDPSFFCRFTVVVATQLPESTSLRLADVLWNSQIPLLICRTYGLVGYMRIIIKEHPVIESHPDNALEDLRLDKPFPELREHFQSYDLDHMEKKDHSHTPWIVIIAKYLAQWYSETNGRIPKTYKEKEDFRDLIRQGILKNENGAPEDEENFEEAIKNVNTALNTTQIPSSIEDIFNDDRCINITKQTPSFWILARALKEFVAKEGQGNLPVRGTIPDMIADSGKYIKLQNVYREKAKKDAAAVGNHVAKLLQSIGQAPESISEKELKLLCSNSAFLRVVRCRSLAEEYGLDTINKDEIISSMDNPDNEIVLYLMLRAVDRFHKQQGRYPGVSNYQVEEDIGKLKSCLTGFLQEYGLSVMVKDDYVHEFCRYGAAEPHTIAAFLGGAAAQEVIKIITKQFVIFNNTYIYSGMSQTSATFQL
T2 sequence 2: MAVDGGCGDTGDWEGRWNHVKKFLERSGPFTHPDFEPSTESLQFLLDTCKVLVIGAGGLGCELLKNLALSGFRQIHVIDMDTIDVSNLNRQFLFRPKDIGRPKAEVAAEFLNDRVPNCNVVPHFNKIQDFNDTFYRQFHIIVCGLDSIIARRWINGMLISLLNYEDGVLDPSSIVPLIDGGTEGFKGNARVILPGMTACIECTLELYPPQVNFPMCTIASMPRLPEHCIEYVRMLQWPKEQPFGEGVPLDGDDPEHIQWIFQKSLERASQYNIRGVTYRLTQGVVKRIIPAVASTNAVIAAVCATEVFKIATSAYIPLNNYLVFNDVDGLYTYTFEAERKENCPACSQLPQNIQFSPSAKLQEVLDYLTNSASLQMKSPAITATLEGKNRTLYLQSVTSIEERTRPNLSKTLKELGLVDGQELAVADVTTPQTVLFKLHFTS
Protocol: as §1, §2

T1 sequence (Q96GG9 62-259): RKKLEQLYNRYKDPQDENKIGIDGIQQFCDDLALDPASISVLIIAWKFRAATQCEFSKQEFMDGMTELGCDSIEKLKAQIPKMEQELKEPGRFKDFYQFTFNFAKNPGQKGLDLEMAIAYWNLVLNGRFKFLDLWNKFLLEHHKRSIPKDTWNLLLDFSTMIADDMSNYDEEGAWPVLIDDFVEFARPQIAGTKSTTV

B1: Acetyl-hUbc12^1-12(5:9Staple) (peptide)
peptide: Ac-MIKL[S5]SLK[S5]QKK-NH2
modifications: staple 5-9
notes: Printed Ac-MIKLXSLKXQKK-NH2, X = 2-(4-pentenyl)alanine; also called stapled helical peptide
- fold improvement of binding over the unstapled peptide [1]: 14 fold
- binding result [2]: no binding
